Reference: patent publication US20260069656A1, “Nutritive Polypeptides and Formulations Thereof, and Methods of Production and Use Thereof” (Axcella Health Inc., priority 2013, published 2026)

B1: SEQID-00502: protein of the 168 nutritive polypeptide library (protein)
chain: MASQSNTKSVHDFTVKDARGNNVNLADYKGKVLLIVNVASQCGLTNSNYTELNQLYEKYKGKGLEILAFPCNQFGAQEPGTNEEIVEFACTRFKAEFPIFDKVDVNGDNAAPLYKFLKSSKGGLFGDSIKWNFSKFLVDKDGNVVDRYAPTTSPLSIEKDIKKLLDA
modifications: Glycine max
notes: protein of the 168 nutritive polypeptide library
B2: SEQID-00485: nutritive polypeptide naturally produced in Chickpea, recombinantly expressed in E. coli (protein, listed as Cicer arietinum)
chain: MTKTGYINAAFRSSRNNEAYLFINDKYVLLDYAPGTSNDKVLYGPSFVRDGYKSLAKTIFGTYGIDCSFDTEYNEAFIFYENFCARIDYAPHSDKDKIISGPKKIADMFPFFKGTVFENGIDAAFRSTKGKEVYLFKGDKYARIDYLTNRLVQNIKSISDGFPCLRGTIFEAGMDSAFASHKTNEAYLFKGEYYARINFTPGSTNDIMGGVKKTLDYWPSLRGIIPLE
B3: Heat-denatured SEQID-00363: SEQID-00363 diluted to 30 g/L in 10% PBS and rapidly heated to 95° C. (protein)
chain: ATLDSWLSNEATVARTAILNNIGADGAWVSGADSGIVVASPSTDNPDYFYTWTRDSGLVLKTLVDLFRNGDTSLLSTIENYISAQAIVQGISNPSGDLSSGAGLGEPKFNVDETAYTGSWGRPQRDGPALRATAMIGFGQWLLDNGYTSTATDIVWPLVRNDLSYVAQYWNQTGYDLWEEVNGSSFFTIAVQHRALVEGSAFATAVGSSCSWCDSQAPEILCYLQSFWTGSFILANFDSSRSGKDANTLLGSIHTFDPEAACDDSTFQPCSPRALANHKEVVDSFRSIYTLNDGLSDSEAVAVGRYPEDTYYNGNPWFLCTLAAAEQLYDALYQWDKQGSLEVTDVSLDFFKALYSDAATGTYSSSSSTYSSIVDAVKTFADGFVSIVETHAASNGSMSEQYDKSDGEQLSARDLTWSYAALLTANNRRNSVVPASWGETSASSVPGTCAATSAIGTYSSVTVTSWPSIVATGGTTTTATPTGSGSVTSTSKTTATASKTSTSTSSTSCTTPTAVAVTFDLTATTTYGENIYLVGSISQLGDWETSDGIALSADKYTSSDPLWYVTVTLPAGESFEYKFIRIESDDSVEWESDPNREYTVPQACGTSTATVTDTWR
modifications: heat-denatured; Aspergillus niger
B4: SEQID-00423: nutritive polypeptide (protein)
chain: VNGTLMQYFEWYTPNDGQHWKRLQNDAEHLSDIGITAVWIPPAYKGLSQSDNGYGPYDLYDLGEFQQKGTVRTKYGTKSELQDAIGSLHSRNVQVYGDVVLNHKAGADATEDVTAVEVNPANRNQETSEEYQIKAWTDFRFPGRGNTYSDFKWHWYHFDGADWDESRKISRIFKFRGEGKAWDWEVSSENGNYDYLMYADVDYDHPDVVAETKKWGIWYANELSLDGFRIDAAKHIKFSFLRDWVQAVRQATGKEMFTVAEYWQNNAGKLENYLNKTSFNQSVFDVPLHFNLQAASSQGGGYDMRRLLDGTVVSRHPEKAVTFVENHDTQPGQSLESTVQTWFKPLAYAFILTRESGYPQVFYGDMYGTKGTSPKEIPSLKDNIEPILKARKEYAYGPQHDYIDHPDVIGWTREGDSSAAKSGLAALITDGPGGSKRMYAGLKNAGETWYDITGNRSDTVKIGSDGWGEFHVNDGSVSIYVQK
modifications: Bacillus Amyloliquefaciens
B5: SEQID-00605: nutritive polypeptide naturally produced in Mushroom, recombinantly expressed in E. coli (protein, listed as Agaricus bisporus)
chain: MLEFTLNDGNRIPAIAFGTGTALYNQDASAFVRLAIETGITHLDGAQMYENEETLGKGIKSSGKPRSELFITTKLHILKPGQTVRETLVESLGKIGVDYVDLFLIHDPTANRKEATLSEIWSQLEALKNEGLTKSIGVSNFKVEDLNEILPGAKIIPAVNQIEFHPYVLKAASPIIELCKAKGIIVASYGGQTPIVRATDGPLKDLLPKIRERLEQTRGSPVTEGQVLTKWLLQKNVIAISTSSKESRIKEFLSTVDVPDLTKQEIESIDNAGSTIHKRIYMKHIFNE
modifications: var. bisporus; strain H97 / ATCC MYA-4626 / FGSC 10389
notes: nutritive polypeptide naturally produced in Mushroom, recombinantly expressed in E. coli
B6: SEQID-00511: protein of the 168 nutritive polypeptide library (protein)
chain: MVLFGFGKKKSLPKPEEALPGRDRVMSVPDRHYINGNPLKPPFPEGMEQAVFGLGCFWGAERKFWQQQGVFSTAVGYAGGYTKNPTYEEVCSGMTGHTEVVLVVFDPKVISYTDLLKLFWESHNPTQGMRQGNDTGTQYRSAIYTYSDEQQRLALASRDRYQQALSAASYGEITTEIAPAQEFYYAEAYHQQYLGKNPNGYCGLGGTGVGCPAMTETSV
modifications: Arthrospira platensis C1
notes: as for B1

Columns and labels:
[1] = pH solubility screen in Citric Acid / Dibasic Sodium Phosphate buffers; format: physicochemical; settings: for pH Range where Protein is >80% detected as Soluble and A650 <1 OD: Low: lower pH of range; for pH Range where Protein is >80% detected as Soluble and A650 <1 OD: High: upper pH of range
Experimental: pH Solubility. […] Protein was either lyophilized and then resuspended in buffer cocktail mixtures, or concentrated and then spiked into buffer cocktail mixtures at a final protein concentration of 5 to 30 mg/ml. As a control, protein was also dissolved in a solution of 8 M urea. Protein solutions were shaken for 10 min at room temperature. Turbidity of proteins was determined by measuring the absorbance of protein solutions at 650 nm. The protein solution was then centrifuged for 10 min at 1100×g to pellet undissolved or precipitated protein. The soluble protein fraction (supernatant) was sampled and protein concentration was measured by one or more of the following methods: Coomassie Plus Protein Assay (Pierce), Chip electrophoresis, gel electrophoresis, and/or absorbance at 280 nm. The pH range over which select proteins remained greater than 80% soluble as determined by Bradford and the A650 value are listed in Table E31C.

[2] = Thermostability, ProteoStat Thermal Shift Stability Kit, temperature of aggregation; format: physicochemical; settings: NS = protein not soluble; for Tagg (pH 7.1): heated 25° C. to 95° C.
Outline: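 Proteins at ~10 mg/ml in citric acid/dibasic sodium phosphate buffer, pH 2.8 to 7.1, with ProteoStat TS detection reagent. Heated 25 °C to 95 °C at 0.5 °C per 30 sec, fluorescence monitored with a Texas Red filter.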

[3] = SGF digest of the 168 nutritive polypeptide library, intact protein by LC-MS/MS spectral counts; format: in vitro ADME; settings: proteins detected in the 168 nutritive polypeptide library
Experimental: Nutritive polypeptide intact half-life determination in a complex mixture. The in vitro intact half-life of multiple polypeptides in a complex mixture was determined using the simulated gastric in vitro digestion described above. Briefly, the 168 nutritive polypeptide library was generated as described herein by cloning, transforming, and expressing a gene library encoding 168 proteins as a single mixture. The recombinantly expressed proteins were purified from host cell proteins by IMAC purification as described herein.
The 168 Protein Library was treated with SGF as described above and the t=0 and t=10 min samples were analyzed for intact protein by LC-MS/MS. To begin, 10 μg of sample was loaded onto a 10% SDS-PAGE gel (Invitrogen) and run approximately 5 cm into the gel. The gel was excised into ten fractions from 100 kD to the dye front and the gel slices were processed by washing with 25 mM ammonium bicarbonate, followed by acetonitrile. Gel fractions were then reduced with 10 mM dithiothreitol at 60° C., followed by alkylation with 50 mM iodoacetamide at room temperature. Finally, the samples were digested with trypsin (Promega) at 37° C. for 4 h and the digestions were quenched with the addition of formic acid. The samples were then analyzed by nano LC/MS/MS using an EasynLC 1000 HPLC system interfaced to a ThermoFisher Q Exactive. Peptides were loaded on a trapping column and eluted over a 75 μm analytical column at 350 nL/min; both columns were packed with PepMap C18 3 μm resin (ThemoFisher). A 1 hour gradient was employed. The mass spectrometer was operated in data-dependent mode, with MS and MS/MS performed in the Orbitrap at 70,000 FWHM resolution and 17,500 FWHM resolution, respectively. The fifteen most abundant ions were selected for MS/MS. Data were searched against an appropriate database using Mascot to identify peptides. Mascot DAT files were parsed into the Scaffold software for validation, filtering and to create a nonredundant list per sample. Data were filtered at 1% protein and peptide false discovery rate (FDR) and requiring at least two unique peptides per protein. A full list of detected proteins and their spectral counts (SpC) was generated and reported as a function of each collected gel fraction. SpC are a count of the number of spectra identified for a given protein and are used as a measure of relative protein abundance (Liu, H. et al., Analytical Chemistry 2004, 76:4193-4201). To calculate the percentage of intact protein remaining at the 10 min time point of the SGF digest the number of SpC representative of intact peptide in the t=10 min sample were divided by the number of SpC representative of intact peptide in the t=0 min sample. The number of SpC representative of intact peptide was defined as the sum of the SpC in the fraction with the highest number of SpC assigned to that protein in the t=0 min sample and the two flanking fractions.

[4] = Intact half-life during simulated gastric fluid (SGF) digestion; settings: for Half-life: purified proteins, chip electrophoresis, SGF
[5] = Solubility of proteins (lyophilized/reconstituted or ultrafiltered); settings: produced in E. coli unless otherwise noted
[6] = Pancreatin-based in vitro digestion, free amino acids by RP-HPLC
Experimental: In this method, pancreatin, a mixture of enzymes, is used to simulate intestinal proteases. Specifically, the digestion of polypeptides into amino acids was analyzed by an in vitro Pancreatin-based digestion assay followed by free amino acid analysis using reversed phase HPLC (RP-HPLC). The nutritive polypeptide was added to SGF (0.92 g/L Pepsin (Sigma), 0.03 M NaCl titrated with HCl to pH 1.5) at a final concentration of 4 g/L and incubated at 37° C. for 120 min. After 120 min, Na2CO3 was added to a final concentration of 16 mM to quench the pepsin reaction. […] Time points were sampled from the reaction and quenched by heating to 95° C. for 5 min. Control samples were protease-free.
Analyses were performed using an Agilent 1100 series system. Primary amino acids were derivitized pre-column at room temperature, online, using o-phthalaldehyde (OPA). The OPA-derivatives were separated using the Zorbax Eclipse-AAA 4.6×150 mm, 3.5 μm column at 40° C. The separation gradient transitioned from 100% 40 mM Na2HPO4 pH 7.8 to 65% acetonitrile/methanol/water mixture (45/45/10) over 23 minutes. Analytes were detected by fluorescence at 340 nm Ex/450 nm Em.

[7] = SGF pH 1.5, pepsin:polypeptide 1:20 w/w, 37° C., produced in E. coli unless otherwise noted

Molecule | pH Range where Protein is >80% detected as Soluble and A650 <1 OD: Low [1] | pH Range where Protein is >80% detected as Soluble and A650 <1 OD: Other [1] | Tagg pH 2.8 ([2]; pH 2.8) | Tagg pH 3.7 ([2]; pH 3.7) | Tagg pH 4.3 ([2]; pH 4.3) | Tagg pH 4.6 [2] | Tagg pH 5.0 [2] | Tagg pH 5.6 [2] | Tagg pH 6.0 [2] | Tagg pH 6.5 [2] | Tagg (pH 7.1) [2] | % Remaining at 10 min [3] [%] | SGF Half-life (t½) [4, 7] [s] | Half-life [4] [s] | pH Range where Protein is >80% detected as Soluble and A650 <1 OD: High [1] | Solubility [5] [mg/mL] | Free Leu (μM) at 120 min time point of Pancreatin digest ([6]; native and modified SEQID-00363) [µM] | SGF Half-life (t½) ([4]; native and modified SEQID-00363, gel electrophoresis) [s] | Free Leu (μM) at 120 min time point of Pancreatin digest ([6]; after 120 min SGF, Pancreatin SIF pH 6.5) [µM]
B1 | 7.1 | 2.8 | 95 | 95 | 95 | 95 | 77 | 77 | 76.5 | 78.5 | 95 | 9.7 | 36 | 36 |  |  |  |  | 
B2 | 4.6 | 2.8 |  |  |  |  | 31.5 | 34.5 | 36 | 36.5 | 36 | 0 | 30 | 30 | 7.1 | 99 |  |  | 
B3 |  |  |  |  |  |  |  |  |  |  |  |  |  |  |  |  | 763.5 | 1220 | 
B4 |  |  |  |  |  |  |  |  |  |  |  |  |  |  |  | 193 |  |  | 587.1
B5 | 5.6 |  |  |  |  | 40.5 | 33.5 | 37 | 44.5 | 38.5 | 39 | 0 | 12 | 6 | 7.1 |  |  |  | 
B6 | 5.6 |  |  |  |  |  |  |  | 39.5 | 45.5 | 42 | 4.3 | 18 | 18 | 7.1 |  |  |  | 
